Earlier results, collected in PMC8277102.

Biological target: EmrA (Escherichia coli) (UniProt P27303)
Test: SPR

- Kd: 1870 nM
Substance: EmrA (from UniProt P27303)
